Assay results as given in the DeepSol protein solubility set.

Assay: soluble on expression in E. coli; label from the status in PepcDB or PDB records

| Sequence | soluble on expression in E. coli |
| --- | --- |
| MVDKREEVMHVAMFPWLAMGHLLPFLRLSKLLAQKGHKISFISTPRNIERLPKLQSNLASSITFVSFPLPPISGLPPSSESSMDVPYNKQQSLKAAFDLLQPPLKEFLRRSSPDWIIYDYASHWLPSIAAELGISKAFFSLFNAATLCFMGPSSSLIEEIRSTPEDFTVVPPWVPFKSNIVFRYHEVTRYVEKTEEDVTGVSDSVRFGYSIDESDAVFVRSCPEFEPEWFGLLKDLYRKPVFPIGFLPPVIEDDDAVDTTWVRIKKWLDKQRLNSVVYVSLGTEASLRHEEVTELALGLEKSETPFFWVLRNEPKIPDGFKTRVKGRGMVHVGWVPQVKILSHESVGGFLTHCGWNSVVEGLGFGKVPIFFPVLNEQGLNTRLLHGKGLGVEVSRDERDGSFDSDSVADSIRLVMIDDAGEEIRAKAKVMKDLFGNMDENIRYVDELVRFMRSKGSSSSS | not soluble |
| IYAYVPLRTPENTGHLALLDGQLELAYQPIVEVAGSDTAQYQVLLRLRKADGNLLSAGLVIPAAEAAGRIMELDQQVIEQALDILKLHQDTNQQLRLFVSQSVRTLIHEGFSDWIIKNLRERNVNGTGLVIDLRLQDAVIHAIPLKQLCKELLKHNVKFCLSQFESNSEATVLFSELPLNFVRLSQHFGDAHNHPERQKELPLLIEQAHEHNLHVIGQCIEDAQAATFMWMNGVDLIQGNLFQNV | not soluble |
| KRIVLGVGGGIAAYKSAELVRRLRDQGAEVRVVMTQGGREFITPLTLQALSGHPVHTDLLDPAAEAAMGHIELARWADLVLIAPATADLMARLVQGVANDLLTTLVLATDAQIALAPAMNQAMWRDTATQANAELLRQRGFHLFGPAAGSQACGDVGLGRMLEAEELAQRAADCFQRQALTGVHVLITAGPTQENIDPVRYITNHSSGKMGFALAEAAVEAGARVTLVTGPVHLPTPDRVQRVDVVSARDMLAACEAAMPCDLLIASAAVADYRPEVVAAHKLKKDPTSGEGLLLQLVRNPDILATLAQREDRPFSVGFAAETENLLDYAARKLKDKNLDLIVANDVANPSIGFNSDENAITVIDRDLHPSTFAQTSKGKIARQLVAFIAD | not soluble |
| MGSDKIHHHHHHCWTYHYSEKPMNWENARKFCKQNYTDLVAIQNKREIEYLENTLPKSPYYYWIGIRKIGKMWTWVGTNKTLTKEAENWGAGEPNNKKSKEDCVEIYIKRERDSGKWNDDACHKRKAALCYTASCQPGSCNGRGECVETINNHTCICDAGYYGPQCQYVVQCEPLEAPELGTMDCIHPLGNFSFQSKCAFNCSEGRELLGTAETQCGASGNWSSPEPICQVVQCEPLEAPELGTMDCIHPLGNFSFQSKCAFNCSEGRELLGTAETQCGASGNWSSPEPICQETNRSFSKIKEGDYN | not soluble |
| AVVSTDEYVTRTNIYYHAGSSRLLAVGHPYYAIKKQDSNKIAVPKVSGLQYRVFRVKLPDPNKFGFPDTSFYDPASQRLVWACTGVEVGRGQPLGVGISGHPLLNKLDDTENSNKYVGNSGTDNRECISMDYKQTQLCLIGCRPPIGEHWGKGTPSNANQVKAGECPPLELLNTVLQDGDMVDTGFGAMDFTTLQANKSDVPLDICSSICKYPDYLKMVSEPYGDMLFFYLRREQMFVRHLFNRAGTVGETVPADLYIKGTTGTLPSTSYFPTPSGSMVTSDAQIFNKPYWLQRAQGHNNGICWSNQLFVTVVDTTRSTNMSVCSAVSSSDSTYKNDNFKEYLRHGEEYDLQFIFQLCKITLTADVMTYIHSMNPSILEDWNGGSGGDPLKNYTFWEVDLKEKFSADLDQFPLGRKFLLQAGL | soluble |
| MATALYTANDFILISLPQNAQPVTAPGSKTDSWFNETLIGGRAFVSDFKIPEFKIGSLDTLIVESEELSKVDNQIGASIGKIIEILQGLNETSTNAYRTLPINNMPVPEYLENFQWQTRKFKLDKSIKDLITLISNESSQLDADVRATYANYNSAKTNLAAAERKKTGDLSVRSLHDIVKPEDFVLNSEHLTTVLVAVPKSLKSDFEKSYETLSKNVVPASASVIAEDAEYVLFNVHLFKKNVQEFTTAAREKKFIPREFNYSEELIDQLKKEHDSAASLEQSLRVQLVRLAKTAYVDVFINWFHIKALRVYVESVLRYGLPPHFNIKIIAVPPKNLSKCKSELIDAFGFLGGNAFMKDKKGKINKQDTSLHQYASLVDTEYEPFVMYIINL | soluble |
| MAHHHHHHMKGNKGANIAYPDKYHKVTEFFDREYGDLETCTKLNDCQKLLFYALRQQVEHGPCTSGAPFIWQVRERAKHDAWKQLGAMTKFEAMVHFVTHLEECIGGNVDWGEKLRDLNGMRDQQRVGVENGTGESNANEQTERGVSEAHWDADVQAHLQPSAENIEYLAREVMRLRGELQQVRPNRVVPTPIVVPPRKPIDYVSTKNIVPPARTLATVATRTALLNAQTTNNLVERQPQGWGEWFGL | not soluble |
| MRFKVSKLMAYILRHSPWEFGLEPDEEGFVSIEELVNAVRKVYPWVTEEYIREIVERDEKGRYEIRGNKIRARYGHSYPVILRHEEDKESKVLYHGTVRRNLKGIMREGIKPMKRQYVHLSINYEDAYNTGRRHGEDVVVLIIDAECLRNKGYKILKAGKKVRIVKHVPVDCISGILLEHHHHHH | not soluble |
| MRQLLLISDLDNTWVGDQQALEHLQEYLGDRRGNFYLAYATGRSYHSARELQKQVGLMEPDYWLTAVGSEIYHPEGLDQHWADYLSEHWQRDILQAIADGFEALKPQSPLEQNPWKISYHLDPQACPTVIDQLTEMLKETGIPVQVIFSSGKDVDLLPQRSNKGNATQYLQQHLAMEPSQTLVCGDSGNDIGLFETSARGVIVRNAQPELLHWYDQWGDSRHYRAQSSHAGAILEAIAHFDFLS | soluble |
| MHEFTDTRDDSTLDEIWLVEHYPVFTQGQAGKAEHILMPGDIPVIQSDRGGQVTYHGPGQQVMYVLLNLKRRKLGVRELVTLLEQTVVNTLAELGIEAHPRADAPGVYVGEKKICSLGLRIRRGCSFHGLALNVNMDLSPFLRINPCGYAGMEMAKISQWKPEATTNNIAPRLLENILALLNNPDFEYITALEHHHHHH | not soluble |
| MSLPASARWQALQEVSILNTGAELPWGGKFSGVAKLIDDAFDAIEKDNEKLKGVLQRISGYAVNEDTLRGLIILFSDTHFTRPTYNGEPVHLGAKDILGHVYEYFLSRFAQAEGKRSGQYFTPKSIVSLIVEMLEPYSGRVYDPAMGSGGFFVQTERFITAHQGNINNVSIYGQEFNPTTWKLAAMNMAIRGIDYDFGKYNADSFTQPQHIDKKMDFIMANPHFNDKEWWNESLADDPRWAYGTPPKGNANFAWLQHMIYHLSPNGKIALLLANGSMSSQTNNEGEIRKAIINADLVECMVALPGQLFTNTKIPACIWFLNRNKKRKGEVLFIDARQIGYMKDRVLRDFTADDIAKIADTLHAWQTSDGYEDQAAFCKSATLEEIKNNDFVLTPGRYVGTAEQEDDGVPFAEKMQNLTALLKEQFAKSAELEAEIKKNLGGLGYEEGHHHHHH | not soluble |
| GMNNLYHLKVRCSSLHKIIGEPKSKADKEAGKLTDTAKSAVREMAKFDLFGYNAFEGNKYTQKGNELEEQAIKLSGVTRGLALKKNTERRENEFITGECDIYVPSRKLIIDTKCSWDIGSHPFFTDEAQEKAKKAGYDIQMQGYMWLWDCDQAQIDFVLFPTPLNLISAYDSDFKLIDLVEQIPQIRRITTVIIQRDNELIDKIKERVSAAQKYYDQLISEMS | soluble |
| MSLKTPAREIITDYAQAHFRYFRTADGTVYAQRNGHPVARPIRSQGTTGSHRQELMVGLFKDGIGVFNGTAMKEALDLIEALALTEDVQPVHIRVAPGFDGATWLDLGRDDGRSVRIHPTGWDIAIPDPREVCWRRTQLTGELPVPIKDTDGKGIDLLLRLCNFATAETECLAIAWLIGCLGPSVPVPAPFLTGPQGAGKSTGGRMLVRIIEGMTGDLRRAPKDEENLIAAVAAGWVTALDNLSHMTPDLSDAMCCIVTGAENVKRALFTDGDVFRARYRRPLLLTGIDVGVIRPDLAERLLPLRLERPKVRRTEAELWTEYAEVLPVVLGSLLDLAVKVRAVEVETPTDLRMADFAHLCAQLDAATGFGALAAYRAALDDLNDDVIEGDLLAQTVLRHAADLEPGTTQRMTSTEWLHCLSQLYTGEEFRPLPKGWPTTGKVLSDRLKRLQPTLAARGVLIDSGRTYEGRYLEMTRAPATEGHHHHHH | not soluble |
